Positions count from the first letter of the chain named.
How the values were obtained:
RXFP1 G41D42-AA = biological target: T1, RXFP1 G41D42-AA (Homo sapiens, UniProt Q9HBX9, D64A/G63A); assay: Eu-H2 relaxin saturation binding assay, transfected HEK293T cells; details: construct G41D42-AA, maximum H2 concentration 15 nM
T1 construct: transiently transfected human embryonic kidney (HEK) 293T cells expressing full-length RXFP1 and mutants; expressed in transfected cells; host or cells: HEK293T
T1 sequence (Q9HBX9 23-757 G63A/D64A limits assumed): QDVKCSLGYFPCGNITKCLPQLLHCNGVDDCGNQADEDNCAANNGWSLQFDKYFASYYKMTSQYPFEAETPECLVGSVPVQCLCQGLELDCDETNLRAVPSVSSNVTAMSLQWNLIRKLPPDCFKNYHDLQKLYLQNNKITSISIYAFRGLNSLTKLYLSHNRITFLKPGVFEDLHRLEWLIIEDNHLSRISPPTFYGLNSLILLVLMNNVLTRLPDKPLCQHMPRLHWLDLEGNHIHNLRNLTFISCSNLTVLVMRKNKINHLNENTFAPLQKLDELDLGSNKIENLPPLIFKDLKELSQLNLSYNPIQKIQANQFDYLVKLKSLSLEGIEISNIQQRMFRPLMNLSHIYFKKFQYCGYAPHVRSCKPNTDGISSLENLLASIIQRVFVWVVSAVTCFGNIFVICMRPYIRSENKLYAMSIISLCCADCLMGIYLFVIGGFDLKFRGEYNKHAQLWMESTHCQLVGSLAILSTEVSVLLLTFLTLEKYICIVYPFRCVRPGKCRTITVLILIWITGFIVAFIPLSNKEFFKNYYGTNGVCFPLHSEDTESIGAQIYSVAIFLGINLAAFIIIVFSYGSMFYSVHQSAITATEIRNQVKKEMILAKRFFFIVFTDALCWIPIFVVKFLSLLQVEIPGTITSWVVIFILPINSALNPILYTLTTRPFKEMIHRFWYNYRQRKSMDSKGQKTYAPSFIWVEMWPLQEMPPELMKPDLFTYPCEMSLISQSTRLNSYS

RXFP1 G41A = biological target: T2, RXFP1 G41A (Homo sapiens, UniProt Q9HBX9, G63A); assay: cAMP activity assay (pCRE β-galactosidase reporter), transfected HEK293T cells; assay type: cell-based; details: construct G41A, ±s.e.m.
T2 construct: transiently transfected human embryonic kidney (HEK) 293T cells expressing full-length RXFP1 and mutants; expressed in transfected cells; host or cells: HEK293T
T2 sequence (Q9HBX9 23-757 G63A limits assumed): T1 sequence (Q9HBX9 23-757 G63A/D64A limits assumed) with A42D
How it was run: (§1)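 Stim: H2 relaxin in minimal media/1% DMSO; +ctrl 5 μM Forskolin, −ctrl vehicle. Plates frozen −80 °C o/n, lysed 10 min + 10 min in Na2HPO4 pH 8.0 buffers, CPRG substrate, A570. Data = % Forskolin max.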

RXFP1 F54A = biological target: T3, RXFP1 F54A (Homo sapiens, UniProt Q9HBX9, F76A); assay: as above; assay type: cell-based; details: construct F54A, ±s.e.m.
T3 construct: cells expressing full-length RXFP1 and mutants; expressed in transfected cells; host or cells: HEK293T
T3 sequence (Q9HBX9 23-757 F76A limits assumed): T1 sequence (Q9HBX9 23-757 G63A/D64A limits assumed) with A41G, A42D, F54A
How it was run: as §1

[1] = percentage of maximum response to 5 μM Forskolin

Q: With “H2 relaxin: two-chain 6-kDa peptide hormone structurally related to insulin; recombinant human gene-2 H2 relaxin provided by Corthera” as the substance, how does the Kd (RXFP1 G41D42-AA) read?
A: > 20 nM

Q: What about the “H2 relaxin pEC50” value (RXFP1 G41A; cAMP reporter) of the same substance?
A: 11.13±0.1 (3)

Q: And the “H2 relaxin Emax” value (RXFP1 G41A; [1])?
A: 104.7±1.65 (3) %

Q: What about the “H2 relaxin pEC50” value (RXFP1 F54A; cAMP reporter) of the same substance?
A: 10.23±0.13 (4)

Q: And the “H2 relaxin Emax” value (RXFP1 F54A; [1])?
A: 104.89±10.48 (4) %

From paper PMC4837482, “The complex binding mode of the peptide hormone H2 relaxin to its receptor RXFP1” (Nature Communications, 2016)
